Experimental data from patent publication US20210206873A1.

Experiments:
[1] = target: human Toll-like Receptor 9 (TLR9) (human) (UniProt Q9NR96); assay: intracellular flow, pDCs; PE isotype control, no block
[2] = target: human Toll-like Receptor 9 (TLR9) (human) (UniProt Q9NR96); assay: intracellular flow, B cells; PE isotype control, no block

Chain of UniProt Q9NR96 (Q9NR96 26-1032): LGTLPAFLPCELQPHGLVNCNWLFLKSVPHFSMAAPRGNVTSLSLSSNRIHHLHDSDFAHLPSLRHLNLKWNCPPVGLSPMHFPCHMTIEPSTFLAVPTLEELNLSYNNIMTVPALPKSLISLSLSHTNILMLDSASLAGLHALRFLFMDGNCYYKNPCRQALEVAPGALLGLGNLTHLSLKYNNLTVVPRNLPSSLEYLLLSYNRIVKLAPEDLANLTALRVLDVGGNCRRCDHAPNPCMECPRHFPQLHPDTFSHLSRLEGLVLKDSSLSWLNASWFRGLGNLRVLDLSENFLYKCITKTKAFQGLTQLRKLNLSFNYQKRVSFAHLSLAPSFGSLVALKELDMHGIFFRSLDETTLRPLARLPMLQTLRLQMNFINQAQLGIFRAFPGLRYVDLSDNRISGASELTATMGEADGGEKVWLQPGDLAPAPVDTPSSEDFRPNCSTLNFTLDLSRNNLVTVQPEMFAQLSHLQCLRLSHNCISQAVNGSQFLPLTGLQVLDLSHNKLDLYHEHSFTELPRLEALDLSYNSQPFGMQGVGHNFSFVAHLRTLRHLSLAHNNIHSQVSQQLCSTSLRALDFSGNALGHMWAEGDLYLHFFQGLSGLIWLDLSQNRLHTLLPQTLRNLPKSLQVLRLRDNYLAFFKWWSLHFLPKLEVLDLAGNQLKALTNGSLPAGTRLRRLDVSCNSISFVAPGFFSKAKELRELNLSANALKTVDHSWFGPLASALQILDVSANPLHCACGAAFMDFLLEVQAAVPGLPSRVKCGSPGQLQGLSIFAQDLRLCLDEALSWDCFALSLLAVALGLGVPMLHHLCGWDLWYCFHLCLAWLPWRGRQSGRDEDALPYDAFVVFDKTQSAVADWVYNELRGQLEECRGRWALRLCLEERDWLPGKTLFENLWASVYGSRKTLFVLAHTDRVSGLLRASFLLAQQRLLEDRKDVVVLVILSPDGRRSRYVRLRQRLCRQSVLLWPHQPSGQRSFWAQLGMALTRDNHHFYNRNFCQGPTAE

MFI [1]	MFI [2]	Substance
138	52	Rat IgG2b isotype control (antibody)
490	142	Rat IgG2a isotype control (antibody)
